Source: the supplement of paper PMC10567573

B1: RIPK4 (parent)
chain: VSVNAQTLDGRTPLHLAAQRGHYR

Variants of: B1
Experiment: protein stability index of a GFP-peptide fusion (GPS, HEK-293T) (PSI 1-6); higher = more stable
Conditions: c terminus: a fixed tail appended
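Also: lentivirally expressed fusions sorted by FACS into six bins by GFP to DsRed ratio, PSI derived from sequencing read proportions per bin multiplied by bin number.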

In order of rising protein stability index:
1. VSVNAQTLDGRTWLHLAAQRGHYR [P13W]  1.75
2. VSVNAQTLDGRTYLHLAAQRGHYR [P13Y]  1.93
3. VSVNAQTLDGRTILHLAAQRGHYR [P13I]  2.17
4. VSVNIQTLDGRTPLHLAAQRGHYR [A5I]  2.19
5. VSVNAQTLDGRTCLHLAAQRGHYR [P13C]  2.22
6. VSVNAQTLDGRTLLHLAAQRGHYR [P13L]  2.25
7. VSVNAQTLDGRTFLHLAAQRGHYR [P13F]  2.34
8. VSVNAQTLDGRYPLHLAAQRGHYR [T12Y]  2.4
9. VSVNAQTLDFRTPLHLAAQRGHYR [G10F]  2.4
10. VSVNAQTLDGRTMLHLAAQRGHYR [P13M]  2.42
11. VSVNAQTLDWRTPLHLAAQRGHYR [G10W]  2.48
12. VSVNFQTLDGRTPLHLAAQRGHYR [A5F]  2.61
13. VSVNAQTLDGRFPLHLAAQRGHYR [T12F]  2.61
14. VSVNVQTLDGRTPLHLAAQRGHYR [A5V]  2.64
15. VSVNAQTLDGFTPLHLAAQRGHYR [R11F]  2.65
16. VSVNAQTLDYRTPLHLAAQRGHYR [G10Y]  2.66
17. VSVNAQTLDGRHPLHLAAQRGHYR [T12H]  2.68
18. VSVNAQTLDGTTPLHLAAQRGHYR [R11T]  2.71
19. VSVNAQTLDGITPLHLAAQRGHYR [R11I]  2.73
20. VSVNLQTLDGRTPLHLAAQRGHYR [A5L]  2.76
21. VSVNMQTLDGRTPLHLAAQRGHYR [A5M]  2.77
22. VSVNAQTLDGMTPLHLAAQRGHYR [R11M]  2.77
23. VSVNAQTLDGRTKLHLAAQRGHYR [P13K]  2.78
24. VSVNAQTLDGRCPLHLAAQRGHYR [T12C]  2.81
25. VSVNAQTLDLRTPLHLAAQRGHYR [G10L]  2.81
26. VSVNAQTLDGRWPLHLAAQRGHYR [T12W]  2.82
27. VSVNWQTLDGRTPLHLAAQRGHYR [A5W]  2.83
28. VSVNAQTLDGRTVLHLAAQRGHYR [P13V]  2.84
29. VSVNAQTLDGWTPLHLAAQRGHYR [R11W]  2.85
30. VSVNAQTLDGRLPLHLAAQRGHYR [T12L]  2.89
31. VSVNAQTLDGRTHLHLAAQRGHYR [P13H]  2.9
32. VSVNAQTLDGLTPLHLAAQRGHYR [R11L]  2.9
33. VSVNAQTLDGCTPLHLAAQRGHYR [R11C]  2.91
34. VSVNAQTLDGRTTLHLAAQRGHYR [P13T]  2.92
35. VSVNRQTLDGRTPLHLAAQRGHYR [A5R]  2.94
36. VSVNAQTLDGRTGLHLAAQRGHYR [P13G]  2.94
37. VSVNAQTLDGRNPLHLAAQRGHYR [T12N]  2.96
38. VSVNAQTLDGYTPLHLAAQRGHYR [R11Y]  2.98
39. VSVNAQTLDGGTPLHLAAQRGHYR [R11G]  2.99
40. VSVNAQTLDHRTPLHLAAQRGHYR [G10H]  3
41. VSVNGQTLDGRTPLHLAAQRGHYR [A5G]  3.02
42. VSVNAQTLDGRGPLHLAAQRGHYR [T12G]  3.05
43. VSVNAQTLDCRTPLHLAAQRGHYR [G10C]  3.05
44. VSVNAQTLDKRTPLHLAAQRGHYR [G10K]  3.09
45. VSVNYQTLDGRTPLHLAAQRGHYR [A5Y]  3.1
46. VSVNAQTLDGRIPLHLAAQRGHYR [T12I]  3.1
47. VSVNAQTLDGRTRLHLAAQRGHYR [P13R]  3.1
48. VSVNAQTLDGHTPLHLAAQRGHYR [R11H]  3.11
49. VSVNPQTLDGRTPLHLAAQRGHYR [A5P]  3.12
50. VSVNAQTLDMRTPLHLAAQRGHYR [G10M]  3.12
51. VSVNAQTLDGSTPLHLAAQRGHYR [R11S]  3.12
52. VSVNQQTLDGRTPLHLAAQRGHYR [A5Q]  3.13
53. VSVNAQTLDGRVPLHLAAQRGHYR [T12V]  3.13
54. VSVNAQTLDGRTQLHLAAQRGHYR [P13Q]  3.15
55. VSVNAQTLDGRMPLHLAAQRGHYR [T12M]  3.19
56. VSVNAQTLDARTPLHLAAQRGHYR [G10A]  3.2
57. VSVNAQTLDTRTPLHLAAQRGHYR [G10T]  3.21
58. VSVNAQTLDGRRPLHLAAQRGHYR [T12R]  3.23
59. VSVNAQTLDGRTELHLAAQRGHYR [P13E]  3.26
60. VSVNAQTLDNRTPLHLAAQRGHYR [G10N]  3.29
61. VSVNAQTLDGRTSLHLAAQRGHYR [P13S]  3.3
62. VSVNAQTLDGDTPLHLAAQRGHYR [R11D]  3.31
63. VSVNAQTLDVRTPLHLAAQRGHYR [G10V]  3.32
64. VSVNAQTLDGRTALHLAAQRGHYR [P13A]  3.33
65. VSVNAQTLDGRSPLHLAAQRGHYR [T12S]  3.35
66. VSVNHQTLDGRTPLHLAAQRGHYR [A5H]  3.36
67. VSVNSQTLDGRTPLHLAAQRGHYR [A5S]  3.37
68. VSVNAQTLDGRTNLHLAAQRGHYR [P13N]  3.38
69. VSVNAQTLDIRTPLHLAAQRGHYR [G10I]  3.38
70. VSVNAQTLDGPTPLHLAAQRGHYR [R11P]  3.38
71. VSVNAQTLDGNTPLHLAAQRGHYR [R11N]  3.42
72. VSVNAQTLDGRAPLHLAAQRGHYR [T12A]  3.48
73. VSVNAQTLDGATPLHLAAQRGHYR [R11A]  3.5
74. VSVNAQTLDGKTPLHLAAQRGHYR [R11K]  3.51
75. VSVNTQTLDGRTPLHLAAQRGHYR [A5T]  3.52
76. VSVNNQTLDGRTPLHLAAQRGHYR [A5N]  3.53
77. VSVNAQTLDGRPPLHLAAQRGHYR [T12P]  3.54
78. VSVNAQTLDRRTPLHLAAQRGHYR [G10R]  3.55
79. VSVNAQTLDGRTDLHLAAQRGHYR [P13D]  3.56
80. VSVNAQTLDGRQPLHLAAQRGHYR [T12Q]  3.57
81. VSVNAQTLDSRTPLHLAAQRGHYR [G10S]  3.57
82. VSVNAQTLDGREPLHLAAQRGHYR [T12E]  3.58
83. VSVNAQTLDERTPLHLAAQRGHYR [G10E]  3.59
84. VSVNAQTLDQRTPLHLAAQRGHYR [G10Q]  3.6
85. VSVNAQTLDGQTPLHLAAQRGHYR [R11Q]  3.62
86. VSVNAQTLDPRTPLHLAAQRGHYR [G10P]  3.66
87. VSVNAQTLDGRDPLHLAAQRGHYR [T12D]  3.68
88. VSVNKQTLDGRTPLHLAAQRGHYR [A5K]  3.69
89. VSVNAQTLDDRTPLHLAAQRGHYR [G10D]  3.69
90. VSVNAQTLDGRKPLHLAAQRGHYR [T12K]  3.72
91. VSVNEQTLDGRTPLHLAAQRGHYR [A5E]  3.73
92. VSVNAQTLDGETPLHLAAQRGHYR [R11E]  3.78
93. VSVNCQTLDGRTPLHLAAQRGHYR [A5C]  3.88
94. VSVNDQTLDGRTPLHLAAQRGHYR [A5D]  4.28
